According to the supplement of paper PMC10567573:

B1: ALKBH7 (parent)
chain: SVICRSLPEGMGPGESGQPPPAC

Variants of: B1
Experiment: protein stability index of a GFP-peptide fusion (GPS, HEK-293T) (PSI 1-6); higher = more stable
Details: c terminus: native
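Further: lentivirally expressed fusions sorted by FACS into six bins by GFP to DsRed ratio, PSI derived from sequencing read proportions per bin multiplied by bin number.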

Protein stability index, by site and new letter:
C23: R 4.76 | W 4.15
G12: E 2.85 | L 1.85 | Q 2 | D 2.52 | Y 2.04 | K 2.22 | P 2.37 | A 2.17 | S 1.87 | H 1.69 | W 1.09 | M 2.68 | N 2.09 | I 1.87 | R 1.82 | F 1.54
C4: R 1.72 | V 1.63 | N 2.24 | Q 2.83 | P 2.4 | Y 1.47 | S 1.82 | M 1.75 | K 1.37 | T 1.62 | A 3.06 | D 1.58 | F 1.61 | H 2.29 | G 1.79 | I 2.88 | W 2.62 | L 2.03
G14: R 1.67 | C 1.52 | Q 2.4 | D 2.25 | L 2 | M 1.63 | A 2.37 | I 1.24 | H 2.07 | V 1.15 | E 1.53 | T 1.77 | F 1.61 | N 2.42 | K 1.58 | W 1.26 | S 1.42
P21: I 2.5 | G 4.95 | H 3.44 | S 4.08 | M 1.18 | F 2.69 | N 4.05 | D 2.63 | L 1.28 | Y 2.59 | Q 3.36 | K 3.92 | C 2.17 | V 3.21 | E 2.47 | A 1.68 | T 2.51
P19: E 5.1 | Y 2.33 | I 3.09 | C 3.13 | M 1.64 | D 4.84 | F 1.99 | S 4.04 | R 2.69 | K 3.18 | T 1.95 | H 3.66 | L 2.19 | A 1.71 | Q 4.22 | V 4.2 | W 2.26 | N 4.27
E15: A 1.09 | D 2.44 | N 1.8 | V 2.44 | I 2.1 | R 1.6 | M 2.4 | G 1.82 | C 1.01 | Y 1.66 | T 2.01 | S 2.68 | K 1.62 | H 1.71 | P 1.73 | Q 1.16 | F 2.49 | L 1.02
S16: R 2.12 | M 2.59 | G 2.29 | P 2.07 | Y 1.95 | I 1.59 | K 2.28 | D 2.2 | T 1.92 | N 2.06 | H 2.07 | F 2.37 | A 1.97 | E 1.81 | Q 1.8 | V 3.02
M11: D 4.2 | F 1.49 | C 1.73 | Y 2.52 | W 1 | L 1.99 | E 3.08 | N 2.81 | S 2.23 | H 1.98 | R 2.29 | A 2.37 | P 1.84
R5: F 1.51 | M 1.8 | G 2.09 | D 2.56 | N 1.7 | E 2.46 | L 1.66 | S 2.65 | C 2.28 | H 2.73 | P 2.59 | K 2.32 | A 1.88 | Y 1.46 | T 2.1 | Q 2.04 | I 1.44
P20: T 2.08 | C 2.42 | E 3.55 | N 4.14 | Y 3.31 | M 1.79 | K 4.38 | F 2.45 | S 3.75 | I 3.72 | Q 1.64 | G 4.91 | D 4.12 | H 3.78 | R 4.09
